This note sets out measurements from FireProtDB (doi:10.1021/bi00010a002).

The conditions of the data set: Saccharomyces cerevisiae (strain ATCC 204508 / S288c), pH 2.1, Thermal, CD, Na2SO4-H2SO4 0.33 M.
[1] abbreviates: reversible: yes (>80%), structure 1YCC.
Setting [2] is: reversible: yes (>70%), structure 1YCC.

Sequence of Cytochrome c isoform 1 Y103F, P00044 (P00044 whole entry Y103F, canonical isoform): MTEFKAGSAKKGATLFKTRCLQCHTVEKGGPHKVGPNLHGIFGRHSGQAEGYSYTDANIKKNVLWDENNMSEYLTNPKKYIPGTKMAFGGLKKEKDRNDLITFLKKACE
Sequence of Cytochrome c isoform 1 F16W, P00044 (P00044 whole entry F16W, canonical isoform): as the sequence (P00044 whole entry Y103F, canonical isoform) above, with F16W, F103Y counted along it
Sequence of Cytochrome c isoform 1 A13Y, P00044 (P00044 whole entry A13Y, canonical isoform): as the sequence (P00044 whole entry Y103F, canonical isoform) above, with A13Y, F103Y counted along it
Sequence of Cytochrome c isoform 1 F16Y, P00044 (P00044 whole entry F16Y, canonical isoform): as the sequence (P00044 whole entry Y103F, canonical isoform) above, with F16Y, F103Y counted along it
Sequence of Cytochrome c isoform 1 L100I, P00044 (P00044 whole entry L100I, canonical isoform): as the sequence (P00044 whole entry Y103F, canonical isoform) above, with L100I, F103Y counted along it
Sequence of Cytochrome c isoform 1 A13L, P00044 (P00044 whole entry A13L, canonical isoform): as the sequence (P00044 whole entry Y103F, canonical isoform) above, with A13L, F103Y counted along it
Sequence of Cytochrome c isoform 1 wild type, P00044 (P00044 whole entry, canonical isoform): as the sequence (P00044 whole entry Y103F, canonical isoform) above, with F103Y counted along it

Regarding Cytochrome c isoform 1 A13L, P00044, under setting [1], the midpoint of thermal melting (Tm) worked out at 33.7 °C; the “change of melting temperature, mutant - wild type (higher = more stable)” value (“change of melting temperature, mutant” below) is -1.7 °C; the “unfolding enthalpy (van 't Hoff)” value was found to be 37.9 kcal/mol.

Cytochrome c isoform 1 A13Y, P00044: under setting [1], the Tm worked out at 36 °C; the “change of melting temperature, mutant” value was found to be 0.6 °C; the “unfolding enthalpy (van 't Hoff)” value is 41.5 kcal/mol.

For Cytochrome c isoform 1 F16W, P00044, under setting [1], the Tm was 23.1 °C; the “change of melting temperature, mutant” value was -12.3 °C; the “unfolding enthalpy (van 't Hoff)” value amounted to 28.9 kcal/mol.

Cytochrome c isoform 1 F16Y, P00044: under setting [2], the melting temperature (Tm) is 28.4 °C; the “change of melting temperature, mutant” value is -7 °C; the “unfolding enthalpy (van 't Hoff)” value was found to be 40.6 kcal/mol.

For the substance Cytochrome c isoform 1 L100I, P00044, under setting [1], the Tm turned out to be 33.7 °C; the “change of melting temperature, mutant” value is -1.7 °C; the “unfolding enthalpy (van 't Hoff)” value came out at 35.8 kcal/mol.

Cytochrome c isoform 1 Y103F, P00044: under setting [1], the Tm amounted to 33.3 °C; the “change of melting temperature, mutant” value is -2.1 °C; the “unfolding enthalpy (van 't Hoff)” value is 33 kcal/mol.

“Cytochrome c isoform 1 wild type, P00044”: under “reversible: yes (>90%)”, the Tm is 35.4 °C and the “unfolding enthalpy (van 't Hoff)” value is 38.1 kcal/mol.

The Tm is the temperature at the midpoint of the melting transition.
